Earlier results on 7 molecules are cited in PMC2864607.

Where two headings read alike, the source gives them in different places.

Among the targets are His203 (UniProt position 203, LTPHRHRVSAI); His49 (UniProt position 49, PGIICHLDDPK); His318 (UniProt position 320, VSSTWHWTGHN); His322 (UniProt position 324, WHWTGHNVKHK); His326 (UniProt position 328, GHNVKHKSAIV); His451 (UniProt position 451, EASGCHYGVLT).
In data set [1] the test system is His2 (position 2, ----GHG----). In words: NMR. Particulars: 25 °C; 0.02 M NaCl; Free model peptide.
Data set [2] addresses His3 (position 3, ---FKHLK---). In words: NMR. Particulars: 25 °C; 0.02 M NaCl; Free model peptide.
Data set [3] addresses His3 (position 3, ---KSHPE---). In words: NMR. The note with it: 25 °C, 0.02 M NaCl, Free model peptide.
Setting [4] is: Protein bound specifically to its cognate DNA recognition sequence.

Turning to “Large T antigen origin-binding domain (T-ag-obd) (Simian virus 40)”, the values for the pKa in the data set with His203 (setting [4]) and with His203 (Unbound protein (no DNA)) were above 8 and around 5, respectively.

As for “TATA-binding protein (PwTBP) (Pyrococcus woesei)”, the figures for the pKa in the data set with His49 (setting [4]) and with His49 (Unbound protein (no DNA)) were 7.2 and 6.2, respectively.

In the case of “E2 protein C-terminal DNA-binding domain (E2C) (Human papillomavirus type 16)”, the pKa – broadly, the negative logarithm of the acid dissociation constant – with His318 (setting [4]) was 7.8; with His318 (Unbound protein (no DNA)), 6.7; with His322 (setting [4]), 6.3; with His322 (Unbound protein (no DNA)), 6.3; in the data set with His326 (setting [4]), 6.2; with His326 (Unbound protein (no DNA)) it was 6.2.

As for “Glucocorticoid receptor (DNA-binding domain) (Rattus norvegicus)”, the pKa was 7.9 in the data set with His451 (setting [4]) and 5.9 with His451 (Unbound protein (no DNA)).

In the case of “GHG model tripeptide (Gly-His-Gly) (synthetic)”, the pKa in data set [1] is on record as 6.68 ± 0.02.

On to FKHLK [FKHLK model peptide (myoglobin-derived) (synthetic (sequence from Physeter macrocephalus myoglobin))], for which the pKa in data set [2] is 6.16 ± 0.02.

As to KSHPE [KSHPE model peptide (myoglobin-derived) (synthetic (sequence from Physeter macrocephalus myoglobin))], the pKa in [3] (cis His-Pro isomer) is 6.23 ± 0.02; in data set [3] (trans His-Pro isomer), 6.69 ± 0.02.
